The values below come from PMC10864208 (2024).

What all share (assay): FP
For test [1], the target named is T1, MDM2 179-193 (Homo sapiens, UniProt Q00987).
T1 chain: {FITC}-RQRKRHK[pS]DSISLSF-NH2

The target in another test is MDM2 159-193 (Homo sapiens, UniProt Q00987, pS186, N-terminal FITC).
Test [2] deals with T2, MDM2 179-193 (Homo sapiens, UniProt Q00987).
T2 chain: {FITC}-RQRKRHK[pS]DSISLSF-NH2

Another test concerns the target T3, MDM2 159-173 (Homo sapiens, UniProt Q00987).
T3 chain: {FITC}-SSRRRAI[pS]ETEENSD-NH2

Values joined by “and” are separate entries in the source; they are usually repeats but may differ in a detail not shown here. Equal values may be shown once. Non-standard residues stand in square brackets, D forms with d. *: point of attachment. FITC = O=C1OC2(c3ccc(O)cc3Oc3cc(O)ccc32)c2ccc(NC(=S)*)cc21; pS = N[C@@H](COP(=O)(O)O)C(=O)O Where only a bound is given, the exact number is not on record here.

Sequence of MDM2 159-193 (Q00987 159-193): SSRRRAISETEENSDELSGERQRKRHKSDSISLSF

B1: 14-3-3σ (protein)
chain: MERASLIQKAKLAEQAERYEDMAAFMKGAVEKGEELSCEERNLLSVAYKNVVGGQRAAWRVLSSIEQKSNEEGSEEKGPEVREYREKVETELQGVCDTVLGLLDSHLIKEAGDAESRVFYLKMKGDYYRYLAEVATGDDKKRIIDSARSAYQEAMDISKKEMPPTNPIRLGLALNFSVFHYEIANSPEEAISLAKTTFDEAMADLHTLSEDSYKDSTLIMQLLRDNLTLWTADNAGEEGGEAPQEPQS
As for B1, the Kd with MDM2 179-193 [1] is 10.8 µM; with MDM2 159-193, more than 124 µM; with MDM2 179-193 [2], 24.6 µM and ~26.2 µM; with MDM2 159-173 it was more than 115 µM.

B2: 14-3-3ζ (protein)
chain: MDKNELVQKAKLAEQAERYDDMAACMKSVTEQGAELSNEERNLLSVAYKNVVGARRSSWRVVSSIEQKTEGAEKKQQMAREYREKIETELRDICNDVLSLLEKFLIPNASQAESKVFYLKMKGDYYRYLAEVAAGDDKKGIVDQSQQAYQEAFEISKKEMQPTHPIRLGLALNFSVFYYEILNSPEKACSLAKTAFDEAIAELDTLSEESYKDSTLIMQLLRDNLTLWTSDTQGDEAEAGEGGEN
For the molecule B2, the Kd in the test with MDM2 179-193 [2] is 11.4 µM.
